Results published in patent US20200017566A1 (priority 2014, published 2020).
Square brackets hold non-standard residues; d marks the D form. βAla = NCCC(=O)O; Sar = CNCC(=O)O

T1: human ferroportin (Homo sapiens, UniProt Q9NP59)
T1 construct: expressed in transfected cells
T1 sequence (Q9NP59 1-571): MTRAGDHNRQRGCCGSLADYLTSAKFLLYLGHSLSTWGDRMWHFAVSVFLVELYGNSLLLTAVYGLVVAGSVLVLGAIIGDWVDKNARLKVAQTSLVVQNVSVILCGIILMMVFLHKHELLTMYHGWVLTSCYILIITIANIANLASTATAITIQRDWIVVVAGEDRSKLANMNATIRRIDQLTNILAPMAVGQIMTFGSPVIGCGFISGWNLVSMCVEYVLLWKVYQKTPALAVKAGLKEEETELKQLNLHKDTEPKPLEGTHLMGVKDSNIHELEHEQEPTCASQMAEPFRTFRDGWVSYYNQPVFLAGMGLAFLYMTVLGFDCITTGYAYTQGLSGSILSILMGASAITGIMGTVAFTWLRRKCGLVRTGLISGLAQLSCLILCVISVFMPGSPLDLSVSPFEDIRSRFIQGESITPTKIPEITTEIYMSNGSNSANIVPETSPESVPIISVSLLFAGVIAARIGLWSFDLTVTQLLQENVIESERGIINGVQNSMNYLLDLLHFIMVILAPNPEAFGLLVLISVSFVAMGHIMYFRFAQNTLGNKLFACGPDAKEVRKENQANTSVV

T2: human ferroportin (SLC40A1) fused to GFP (human, UniProt Q9NP59 1-571)
T2 sequence (looked up): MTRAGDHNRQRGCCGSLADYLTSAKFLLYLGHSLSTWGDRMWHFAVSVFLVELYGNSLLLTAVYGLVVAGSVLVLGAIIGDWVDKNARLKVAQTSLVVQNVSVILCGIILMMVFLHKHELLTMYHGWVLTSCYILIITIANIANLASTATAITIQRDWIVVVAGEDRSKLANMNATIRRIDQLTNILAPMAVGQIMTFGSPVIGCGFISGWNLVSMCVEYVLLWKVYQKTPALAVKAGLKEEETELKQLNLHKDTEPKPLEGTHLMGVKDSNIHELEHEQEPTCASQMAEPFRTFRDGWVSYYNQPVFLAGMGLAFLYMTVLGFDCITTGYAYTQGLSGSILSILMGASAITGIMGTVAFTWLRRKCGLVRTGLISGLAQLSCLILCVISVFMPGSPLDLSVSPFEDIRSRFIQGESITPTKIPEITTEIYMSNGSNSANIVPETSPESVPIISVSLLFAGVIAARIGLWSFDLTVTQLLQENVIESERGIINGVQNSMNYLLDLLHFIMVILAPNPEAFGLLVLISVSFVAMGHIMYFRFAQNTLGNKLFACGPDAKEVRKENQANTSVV


Legend:
[1] = reported by Presza et al. J Clin Invest. 2011; cited from earlier work
human ferroportin = molecular target: T1, human ferroportin; format: cell-based; conditions: Table 3
Protocol: Peptide analogues were tested in vitro for induction of internalization of the human ferroportin protein. Following internalization, the […] are degraded. The assay measures a decrease in fluorescence of the receptor.
The cDNA encoding the human ferroportin (SLC40A1) was cloned from a cDNA clone from Origene (NM_014585). The DNA encoding the ferroportin was amplified by PCR using primers also encoding terminal restriction sites for subcloning, but without the termination codon. The ferroportin receptor was subcloned into a mammalian GFP expression vector containing a neomycin (G418) resistance marker in such that the reading frame of the ferroportin was fused in frame with the GFP protein. The fidelity of the DNA encoding the protein was confirmed by DNA sequencing. HEK293 cells were used for transfection of the ferroportin-GFP receptor expression plasmid. The cells were grown according to standard protocol in growth medium and transfected with the plasmids using Lipofectamine (manufacturer's protocol, Invitrogen). […] The cells were propagated and frozen in aliquots.
A retro inverse peptide is a peptide with a reversed sequence in all D amino acids. […] The EC50 of these reference compounds for ferroportin degradation was determined according to the activity assay described above.

[2] = molecular target: T2, human ferroportin (SLC40A1) fused to GFP; test: cell-based or functional assay

Potency EC50 [2]	Molecule	other results
> 10 µM	H-DTHF[βAla]CIIFGPRSKGWVCK-NH2 (not fully specified (bridges); printed as Hy-DTHF-[β-Ala]-CIIFGPRSKGWVCK-NH2; cysteine pairing not given here) [CMPD No. 129]	–
> 10 µM	H-DTHFKCIIFGPRSKGWVCK-NH2 (not fully specified (bridges); printed as Hy-DTHFKCIIFGPRSKGWVCK-NH2; cysteine pairing not given here) [CMPD No. 131]	–
> 10 µM	H-DTHF[Sar]CIIFGPRSKGWVCK-NH2 (not fully specified (bridges); printed as Hy-DTHF-[Sarc]-CIIFGPRSKGWVCK-NH2; cysteine pairing not given here) [CMPD No. 127]	–
> 0.3 µM	DTHFPCIKFKPRSKGWVCK (not fully specified; IVA (isovaleric acid) on side chain of Lys 10; C-terminal amide) [CMPD No. 205]	–

The remaining lines, values behind:

Molecule	Potency EC50 [2]	other results
Hy-DPhe-DIle-DCys-DIle-DPro-DPhe-DHis-DThr-DAsp-NH2 [RI-Mini Hepcidin]	–	activity in vivo [1]: highly active in vivo
DTHCPIAIF [compound 473]	–	Ferroportin internalization assay EC50 (nM) (human ferroportin): Not Active
H-DTHFRCIIFGPRSKGWVCK-NH2 (not fully specified (bridges); printed as Hy-DTHFRCIIFGPRSKGWVCK-NH2; cysteine pairing not given here) [CMPD No. 125]	> 10 µM	–
H-DTHFGCIIFGPRSKGWVCK-NH2 (not fully specified (bridges); printed as Hy-DTHFGCIIFGPRSKGWVCK-NH2; cysteine pairing not given here) [CMPD No. 123]	> 10 µM	–
